Entries after “also recorded” stand apart in the source; their conditions may differ.
T1: FGFR1c ectodomain (Homo sapiens, UniProt P11362)
T1 construct: made in house; host or cells: E. coli
T1 sequence (P11362 142-365): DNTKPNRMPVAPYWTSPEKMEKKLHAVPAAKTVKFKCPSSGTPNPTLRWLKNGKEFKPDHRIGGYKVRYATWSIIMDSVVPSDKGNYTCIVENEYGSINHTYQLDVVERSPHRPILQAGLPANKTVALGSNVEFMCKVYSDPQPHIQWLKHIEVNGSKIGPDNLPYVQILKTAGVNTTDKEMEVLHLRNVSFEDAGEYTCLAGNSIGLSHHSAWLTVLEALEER

T2: FGFR1c-βKlotho-FGF19 (UniProt P11362+Q99N32)
T2 construct: the ectodomain of murine βKlotho (F53 to L995) was expressed in HEK293 cells; FLAG (C); made in house; host or cells: E. coli (FGFR1c, FGF19); HEK293 (βKlotho ectodomain)
T2 sequence (P11362 142-365): T1 sequence (P11362 142-365)
T2 sequence (Q99N32 53-995): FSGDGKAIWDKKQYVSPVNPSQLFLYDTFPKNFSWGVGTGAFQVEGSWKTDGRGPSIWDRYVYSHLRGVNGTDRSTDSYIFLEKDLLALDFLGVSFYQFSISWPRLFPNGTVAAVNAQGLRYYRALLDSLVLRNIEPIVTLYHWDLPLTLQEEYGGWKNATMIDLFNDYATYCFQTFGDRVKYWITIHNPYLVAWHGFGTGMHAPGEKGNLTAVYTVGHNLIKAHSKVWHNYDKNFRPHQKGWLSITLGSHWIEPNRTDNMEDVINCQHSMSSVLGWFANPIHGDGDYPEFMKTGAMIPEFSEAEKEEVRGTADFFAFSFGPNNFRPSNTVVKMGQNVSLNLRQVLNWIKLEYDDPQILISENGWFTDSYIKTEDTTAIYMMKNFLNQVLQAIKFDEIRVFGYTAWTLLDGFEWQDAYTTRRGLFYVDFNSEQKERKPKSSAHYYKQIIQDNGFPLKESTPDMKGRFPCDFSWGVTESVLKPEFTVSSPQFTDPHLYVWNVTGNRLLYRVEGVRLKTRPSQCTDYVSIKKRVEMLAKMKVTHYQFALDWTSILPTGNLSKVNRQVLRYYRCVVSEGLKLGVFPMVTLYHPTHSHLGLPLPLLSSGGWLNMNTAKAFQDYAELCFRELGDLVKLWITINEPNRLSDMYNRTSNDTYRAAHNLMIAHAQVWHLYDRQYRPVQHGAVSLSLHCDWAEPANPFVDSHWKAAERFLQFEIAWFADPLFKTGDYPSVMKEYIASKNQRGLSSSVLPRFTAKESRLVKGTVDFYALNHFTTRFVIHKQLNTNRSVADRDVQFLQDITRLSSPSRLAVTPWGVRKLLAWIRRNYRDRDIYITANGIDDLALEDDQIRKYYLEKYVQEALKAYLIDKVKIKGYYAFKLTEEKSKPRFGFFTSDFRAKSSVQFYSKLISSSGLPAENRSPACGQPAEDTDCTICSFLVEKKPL

B1: FGF23^28-251: human FGF23 (A28 to I251), bioactive full-length ligand expressed in E. coli (protein, listed as Homo sapiens)
chain: ASPLLGSSWGGLIHLYTATARNSYHLQIHKNGHVDGAPHQTIYSALMIRSEDAGFVVITGVMSRRYLCMDFRGNIFGSHYFDPENCRFQHQTLENGYDVYHSPQYHFLVSLGRAKRAFLPGMNPPPYSQFLSRRNEIPLIHFNTPIPRRHTRSAEDDSERDPLNVLKPRARMTPAPASCSQELPSAEDNSPMASDPLGVVRGGRVNTHAGGTGPEGCRPFAKFI
B2: FGF23^180-251: 72-amino acid C-terminal tail of human FGF23 (S180 to I251), expressed in E. coli (protein, listed as Homo sapiens)
chain: SAEDDSERDPLNVLKPRARMTPAPASCSQELPSAEDNSPMASDPLGVVRGGRVNTHAGGTGPEGCRPFAKFI

Legend:
FGFR1c ectodomain = biological target: T1, FGFR1c ectodomain; experiment: SPR: FGFR1c ectodomain passed over immobilized FGF23; format: binding
Method: Surface plasmon resonance (SPR) spectroscopy experiments were performed on a Biacore 2000 instrument (Biacore AB), and FGF23-FGFR1c-Klotho interactions were studied at 25° C. in HBS-EP buffer (10 mM HEPES-NaOH, pH 7.4, 150 mM NaCl, 3 mM EDTA, 0.005% (v/v) polysorbate 20). Proteins were immobilized by amine coupling on flow channels of research grade CM5 chips (Biacore AB). Proteins were injected over a CM5 chip at a flow rate of 50 μl min^−1, and at the end of each protein injection (180 s), HBS-EP buffer (50 μl min^−1) was flowed over the chip to monitor dissociation for 180 s. The chip surface was then regenerated by injecting 50 μl of 2.0 M NaCl in 10 mM sodium acetate, pH 4.5. To control for nonspecific binding in experiments where Klotho ectodomain was immobilized on the chip, β-glucuronidase was coupled to the control flow channel of the chip (˜26-32 fmole/mm^2). […] The data were processed with BiaEvaluation software (Biacore AB). For each protein injection over a Klotho chip, the nonspecific responses from the β-glucuronidase control flow channel were subtracted from the responses recorded for the Klotho flow channel. Similarly, for each protein injection over a FGF chip, the nonspecific responses from the FHF1B control flow channel were subtracted from the responses recorded for the FGF flow channel. […]

FGFR1c-βKlotho-FGF19 = biological target: T2, FGFR1c-βKlotho-FGF19; experiment: SPR specificity: FGFR1c-βKlotho binding to immobilized FGF19^23-216; design: species or system human FGFR1c, murine βKlotho, human FGF19; settings: 10-fold molar excess over FGFR1c-βKlotho

Molecule	binding of FGF23 to FGFR1c ectodomain alone (FGFR1c ectodomain)	inhibition of FGFR1c-βKlotho binding to immobilized FGF19 (FGFR1c-βKlotho-FGF19)
B1	poor binding	
B2		did not affect; also recorded: no inhibition

From patent publication US8889621B2, “Inhibiting binding of FGF23 to the binary FGFR-Klotho complex for the treatment of hypophosphatemia” (New York University, priority 2009, dated 2014)
